Experimental data as given in patent US5948643, “Modulators of BRCA1 activity” (Onyx Pharmaceuticals, Inc., dated 1999).
Each block holds one binder with its values, some of them ahead of it.

Columns and labels:
[1] = target: T1, vector control (GAL4 binding domain vector without insert) (Saccharomyces cerevisiae (strain ATCC …, UniProt P04386)); assay: yeast two-hybrid (Example 3); vector control
Protocol: (§1) Two hybrid experiments were conducted to ascertain the regions of the BRCA1 Modulator 091-21A31, Sequence ID No. 1 that interact with BRCA1. The assay was run essentially as described in Example 1. Transformation and growth of yeast cultures were performed essentially as described in U.S. Pat. No. 5,283,173; Chien et al., 1991, Proc. Natl. Acad. Sci. USA, 88: 9578–9582; or Spaargaren, M., et al., (1994) Biochem. J. 300, 303–307.

[2] = target: GAL4-BRCA1 (8-1293): BRCA1 amino acids 8-1293 fused to the GAL4 binding domain (human); assay: yeast two-hybrid (Example 3)
Protocol: as §1

[3] = target: BRCA1 (1-300) fused to the GAL4 binding domain (human); assay: yeast two-hybrid (Example 3)
Protocol: as §1

[4] = target: BRCA1 (1-600) fused to the GAL4 binding domain (human); assay: yeast two-hybrid (Example 3)
Protocol: as §1

[5] = target: T1, vector control (GAL4 binding domain …); assay: yeast two-hybrid, b-galactosidase; vector control
Protocol: (§2) The experiment was conducted using the two-hybrid assay as described in U.S. Pat. No. 5,283,173, or Chien et al., 1991, Proc. Natl. Acad. Sci. USA, 88: 9578–9582. The cDNAs that encode 091-1F84, Sequence ID No. 3, 091-21A31, Sequence ID No. 1 and 091-132Q20, Sequence ID No. 5 were fused to the GAL 4 activation domain, and those regions of BRCA1 shown in the table were fused to the binding domain of GAL4. The "+" sign is a subjective measure of the amount of b-galactosidase activity. One "+" being the lowest, and three "+++" being the highest activity.
(§3) Experiments were conducted to ascertain which regions of BRCA1 interact with the three BRCA1 Modulators described in Example 1. The experiment was conducted using the two-hybrid assay as described in U.S. Pat. No. 5,283,173, or Chien et al., 1991, Proc. Natl. Acad. Sci. USA, 88: 9578–9582. The cDNA that encodes the 091-1F84, Sequence ID No. 3, 091-21A31, Sequence ID No. 1, and 091-132Q20, Sequence ID No. 5 was fused to the GAL4 activation domain, and those regions of BRCA1 shown in Table 1 and that contain BRCA1 amino acids 1–300, 1–600, or 8–1293 were fused to the binding domain of GAL4. Controls consisted of the vector, or bcl2 fused to the GAL4 binding domain (See, U.S. Pat. 5,539,085).

[6] = target: BRCA1 (1-300) fused to the GAL4 binding domain (human); assay: yeast two-hybrid, b-galactosidase
Protocol: as §2, §3

binding result [1]: no binding
binding result [3]: no binding
binding result [4]: no binding
B3: 091-21A31, Sequence ID No. 1 fragment containing amino acids 1-300 fused to the GAL4 activation domain (other)
chain: MPIRALCTICSDFFDHSRDVAAIHCGHTFHLQCLIQWFETAPSRTCPQCRIQVGKRTIINKLFFDLAQEEENVLDAEFLKNELDNVRAQLSQKDKEKRDSQVIIDTLRDTLEERNATVVSLQQALGKAEMLCSTLKKQMKYLEQQQDETKQAQEEARRLRSKMKTMEQIELLLQSQRPEVEEMIRDMGVGQSAVEQLAVYCVSLKKEYENLKEARKASGEVADKLRKDLFSSRSKLQTVYSELDQAKLELKSAQKDLQSADKEIMSLKKKLTMLQETLNLPPVASETVDRLVLESPAPVE

binding result [1]: no binding
binding result [3]: no binding
B6: 091-21A31, Sequence ID No. 1 fragment containing amino acids 78-469 fused to the GAL4 activation domain (other)
chain: FLKNELDNVRAQLSQKDKEKRDSQVIIDTLRDTLEERNATVVSLQQALGKAEMLCSTLKKQMKYLEQQQDETKQAQEEARRLRSKMKTMEQIELLLQSQRPEVEEMIRDMGVGQSAVEQLAVYCVSLKKEYENLKEARKASGEVADKLRKDLFSSRSKLQTVYSELDQAKLELKSAQKDLQSADKEIMSLKKKLTMLQETLNLPPVASETVDRLVLESPAPVEVNLKLRRPSFRDDIDLNATFDVDTPPARPSSSQHGYYEKLCLEKSHSPIQDVPKKICKGPRKESQLSLGGQSCAGEPDEELVGAFPIFVRNAILGQKQPKRPRSESSCSKDVVRTGFDGLGGRTKFIQPTDTVMIRPLPVKPKTKVKQRVRVKTVPSLFQAKLDTFLWS

Continued, binder first:

B1: 091-21A31, Sequence ID No. 1 fragment containing amino acids 300-469 fused to the GAL4 activation domain (other)
chain: EVNLKLRRPSFRDDIDLNATFDVDTPPARPSSSQHGYYEKLCLEKSHSPIQDVPKKICKGPRKESQLSLGGQSCAGEPDEELVGAFPIFVRNAILGQKQPKRPRSESSCSKDVVRTGFDGLGGRTKFIQPTDTVMIRPLPVKPKTKVKQRVRVKTVPSLFQAKLDTFLWS
binding result [1]: no binding
binding result [2]: no binding
binding result [3]: no binding
binding result [4]: no binding

B2: BRCA1 Modulator Protein 091-1F84, Sequence ID No. 3, fused to the GAL4 activation domain (other)
chain: ARESLSLPSMLRDAAIGTTPFSTCSVGTWFTPSAPQEKSTNTSQTGLVGTKHSTSETEQLLCGRPPDLTALSRHDLEDNLLSSLVILEVLSRQLRDWKSQLAVPHPETQDSSTQTDTSHSGITNKLQHLKESHEMGQALQQARNVMQSWVLISKELISLLHLSLLHLEEDKTTVSQESRRAETLVCCCFDLLKKLRAKLQSLKAEREEARHREEMALRGKDAAEIVLEAFCAHASQRISQLEQDLASMREFRGLLKDAQTQLVGLHAKQEELVQQTVSLTSTLQQDWRSMQLDYTTWTALLSRSRQLTEKLTVKSQQALQERDVAIEEKQEVSRVLEQVSAQLEECKGQTEQLELENSRLATDLRAQLQILANMDSQLKELQSQHTHCAQDLAMKDELFCQLTQSNEEQAAQWQKEEMALKHMQAELQQQQAVLAKEVRDLKETLEFADQENQVAHLELGQVECQLKTTLEVLRERSLQCENLKDTVENLTAKLASTIADNQEQDLEKTRQYSQKLRLLTEQLQSLTLFLQTKLKEKTEQETLLLSTACPPTQEHPLPNDRTFLGSILTAVADEEPESTPVPLLGSDKSAFTRVASMVSLQPAETPGMEESLAEMSIMTTELQSLCSLLQESKEEAIRTLQRKICELQVRLQAQEEQHQEVQKAKEADIEKLNQALCLRYKNEKELQEVIQQQNEKILEQIDKSGELISLREEVTHLTRSLRRAETETKVLQEALAGQLDSNCQPMATNWIQEKVWLSQEVDKLRVMFLEMKNEKEKLMIKFQSHRNILEENLRRSDKELEKLDDIVQHIYKTLLSIPEVVRGCRELQGLLEFLS
binding result [5]: no binding
binding result [6]: no binding

B4: BRCA1 Modulator Protein 091-132Q20, Sequence ID No. 5, fused to the GAL4 activation domain (other)
chain: ARGGAEEATEAGRGGRRRSPRQKFEIGTMEEAGICGLGVKADMLCNSQSNDILQHQGSNCGGTSNKHSLEEDEGSDFITENRNLVSPAYCTQESREEIPGGEARTDPPDGQQDSECNRNKEKTLGKEVLLLMQALNTLSTPEEKLAALCKKYADLLEESRSVQKQMKILQKKQAQIVKEKVHLQSEHSKAILARSKLESLCRELQRHNKTLKEENMQQAREEEERRIEATAHFQITLNEIQAQLEQHDIHNAKLRQENIELGEKLKKLIEQYALREEHIDKVFKHKELQQQLVDAKLQQTTQLIKEADEKHQREREFLLKEATESRHKYEQMKQQEVQLKQQLSLYMDKFEEFQTTMAKSNELFTTFRQEMEKMTKKIKKKKKKLE
binding result [5]: no binding
binding result [6]: no binding

B5: BRCA1 Modulator Protein 091-21A31, Sequence ID No. 1, fused to the GAL4 activation domain (other)
chain: MPIRALCTICSDFFDHSRDVAAIHCGHTFHLQCLIQWFETAPSRTCPQCRIQVGKRTIINKLFFDLAQEEENVLDAEFLKNELDNVRAQLSQKDKEKRDSQVIIDTLRDTLEERNATVVSLQQALGKAEMLCSTLKKQMKYLEQQQDETKQAQEEARRLRSKMKTMEQIELLLQSQRPEVEEMIRDMGVGQSAVEQLAVYCVSLKKEYENLKEARKASGEVADKLRKDLFSSRSKLQTVYSELDQAKLELKSAQKDLQSADKEIMSLKKKLTMLQETLNLPPVASETVDRLVLESPAPVEVNLKLRRPSFRDDIDLNATFDVDTPPARPSSSQHGYYEKLCLEKSHSPIQDVPKKICKGPRKESQLSLGGQSCAGEPDEELVGAFPIFVRNAILGQKQPKRPRSESSCSKDVVRTGFDGLGGRTKFIQPTDTVMIRPLPVKPKTKVKQRVRVKTVPSLFQAKLDTFLWS
binding result [5]: no binding
binding result [6]: no binding
